The text below walks through data of patent publication US20260008817A1, “CYCLIC PEPTIDE OR SALT THEREOF, AND USES THEREOF” (FUJIFILM Corporation, priority 2023, published 2026).

Positions of bridges follow the written chain, without caps; N, C: chain ends. Non-standard residues stand in square brackets, D forms with d. No end group written: not given here. COCH2 = acetyl group that carries the bridge; NMeL = CN[C@@H](CC(C)C)C(=O)O; hLeu = CC(C)CC[C@H](N)C(=O)O; hCys = N[C@@H](CCS)C(=O)O; Orn = NCCC[C@H](N)C(=O)O

The target of data set [1] is T1, Recombinant Human FGFR1 alpha (IIIc) Fc Chimera Protein (Homo sapiens, UniProt P11362).
T1 construct: purchased R&D systems 658-FR-050
T1 sequence (P11362 with tags, fused parts or gaps limits assumed): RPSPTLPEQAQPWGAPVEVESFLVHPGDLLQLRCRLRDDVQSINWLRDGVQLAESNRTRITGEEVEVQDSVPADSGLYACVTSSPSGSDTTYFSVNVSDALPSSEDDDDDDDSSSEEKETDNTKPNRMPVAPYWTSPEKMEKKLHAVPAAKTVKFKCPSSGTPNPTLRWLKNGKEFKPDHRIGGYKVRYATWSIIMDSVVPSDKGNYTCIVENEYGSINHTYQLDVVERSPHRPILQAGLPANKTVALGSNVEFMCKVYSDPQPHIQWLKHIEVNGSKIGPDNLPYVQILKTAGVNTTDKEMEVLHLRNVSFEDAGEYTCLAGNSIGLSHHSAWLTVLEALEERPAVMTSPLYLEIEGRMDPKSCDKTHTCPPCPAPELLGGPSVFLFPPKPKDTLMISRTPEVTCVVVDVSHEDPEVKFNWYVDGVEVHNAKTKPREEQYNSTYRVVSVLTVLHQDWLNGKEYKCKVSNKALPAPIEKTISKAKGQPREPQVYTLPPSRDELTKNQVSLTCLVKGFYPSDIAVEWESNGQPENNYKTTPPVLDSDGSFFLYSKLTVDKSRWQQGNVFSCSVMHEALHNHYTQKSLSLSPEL
As to the kind of experiment: SPR binding affinity of chemically synthesized cyclic peptide to immobilized FGFR. As to conditions: SPR binding amount at 10 nmol/L cyclic peptide, 25° C.; chemically synthesized product. As to the method: The binding affinity of the cyclic peptide to FGFR was evaluated using a surface plasmon resonance (SPR) method.
The binding affinity of the chemically synthesized cyclic peptide to FGFR was evaluated by the following procedure.
A CM5 sensor chip (Cytiva, 29149603) was set in Biacore-T200 (manufactured by Cytiva) which is a surface plasmon resonance device, and an HBS-EP buffer (Cytiva, BR100826) was added as a running buffer at a flow rate of 10 μL/min to equilibrate the flow channel. Next, 70 μL of a mixed aqueous solution of 0.2 mol/L 1-(3-dimethylaminopropyl)-3-ethylcarbodiimide (EDC) and 0.05 mol/L N-hydroxysuccinimide (NHS) was added to activate the sensor chip. Then, Recombinant Human FGFR1 alpha (IIIc) Fc Chimera Protein CF (R&D systems, 658-FR-050) prepared at 50 nmol/L in an Acetate 4.5 buffer (Cytiva, BR100350) was added thereto to perform immobilization at about 5000 RU. Thereafter, the blocking treatment was performed with an ethanolamine solution. In addition, in another flow channel of the same sensor chip, blocking treatment was performed immediately after activation without immobilizing FGFR.
A cyclic peptide diluted to 10 nmol/L using HBS-EP was added to each flow channel of the FGFR-immobilized sensor chip produced above at 25° C. for 10 minutes, then HBS-EP was allowed to flow as a running buffer for 30 minutes, and the binding of the cyclic peptide to FGFR was measured. Thereafter, a regeneration treatment of removing the bound cyclic peptide was performed by repeating the flow of a regeneration liquid in which sodium chloride powder was dissolved in Glysine 1.5 (Cytiva, BR100354) to a final concentration of 0.15 mol/L for 1 minute in each flow channel twice. The binding amount of the cyclic peptide was evaluated from the difference between the measured value of Biacore-T200 in the flow channel in which FGFR was immobilized and the measured value of Biacore-T200 in the flow channel in which FGFR was not immobilised, in a case where a 10 nmol/L cyclic peptide was allowed to flow.
The binding amount of the cyclic peptide evaluated above was normalized to the binding amount of the cyclic peptide molecules per one molecule of FGFR using the molecular weights of the cyclic peptide and FGFR, and the binding affinity to FGFR was evaluated according to the following evaluation criteria. The evaluation result preferably satisfies the evaluation criteria A, B, or C.
• A: The binding amount is 0.7 molecules of the cyclic peptide/one molecule of FGFR or more. • B: The binding amount is 0.5 molecules of the cyclic peptide/one molecule of FGFR or more and less than 0.7 molecules of cyclic peptide/one molecule of FGFR. • C: The binding amount is 0.1 molecules of cyclic peptide/one molecule of FGFR or more and less than 0.5 molecules of cyclic peptide/one molecule of FGFR. • D: The binding amount is less than 0.1 molecules of the cyclic peptide/one molecule of FGFR.

A short description of data set [2]: Reductive stability of cyclic peptide (DTT treatment, LC). The following applies: residual rate after DTT treatment, room temperature, 1 hour. In kind it is physicochemical. How it is done:
The molecular stability of the cyclic peptide was evaluated by analyzing an aqueous solution of the cyclic peptide treated with a reducing agent by liquid chromatography (LC).
The reducing agent treatment was performed under the following conditions based on the concentration of glutathione contained in the cells. 25 μL of a 0.2 mg/mL cyclic peptide aqueous solution was prepared, 58.8 μL of a 12.6 mmol/L DTT aqueous solution was added to the aqueous solution, and the mixture was incubated at room temperature for 1 hour to obtain an aqueous solution of the cyclic peptide treated with a reducing agent. The DTT aqueous solution was used by diluting a 1 mol/L (+−)-dithiothreitol (DTT) solution (FUJIFILM Wako Pure Chemical Corporation, 044-33871) with water. The total area of all the peaks in LC/MS of the cyclic peptide before the reducing agent treatment was set to 100%, and the proportion of the total area of all the peaks in LC/MS of the aqueous solution of the cyclic peptide treated with the reducing agent was determined to calculate the residual rate of the cyclic peptide, and the molecular stability was evaluated according to the following evaluation criteria. The evaluation result preferably satisfies the evaluation criteria A, B, or C.
• A: The residual rate of cyclic peptide is 90% or more. • B: The residual rate of the cyclic peptide is 70% or more and less than 90% • C: The residual rate of the cyclic peptide is 50% or more and less than 70% • D: The residual rate of the cyclic peptide is less than 50%
The LC used for the evaluation of molecular stability was set to the following conditions. • LC device: Prominence series (pump, column oven, autosampler, detector) (manufactured by Shimadzu Corporation) • Detector: photodiode array detector (SPD-M20A), measurement wavelength of 280 nm • Column: TSKgel ODS-100V, inner diameter of 4.6 mm×length of 150 mm, particle diameter of 5 μm (manufactured by Tosoh Corporation) • Eluent A: solution containing 0.1% trifluoroacetic acid as solute, and solvent is 100% water • Eluent B: solution containing 0.1% trifluoroacetic acid as solute, and solvent is 100% acetonitrile • Flow rate: 1.0 mL/min • Injection amount: 25 μL • Gradient: 20% to 50%: Eluent B (0 to 15 minutes), 100%: Eluent B (15 minutes) • Column temperature: 40° C.

The subject of data set [3] is hMSC-Human Mesenchymal Stem Cells. As to the kind of experiment: Effect of maintaining MSC undifferentiated potency (gene expression). In kind it is cell-based. How it is done:
The effect of maintaining mesenchymal stem cell (MSC) undifferentiated potency of the cyclic peptide complex was evaluated.
MSC was prepared in the same manner as in Example 7.
The evaluation of the effect of maintaining the MSC undifferentiated potency was performed by the following method. First, a culture medium (hereinafter, referred to as a custom culture medium) in which bFGF was removed from PRIME-XV MSC Expansion XSFM (FUJIFILM Irvine Scientific, Inc., 91149) was prepared. Next, Prime-XV Human Fibronectin (FUJIFILM Irvine Scientific, Inc., 31002) was dissolved in PBS (Fujifilm Wako Pure Chemical Corporation, 164-23551), 2 μg/cm^2 of the solution was added to a 12-well plate used for proliferation, and the 12-well plate was allowed to stand at room temperature for 3 hours to coat the 12-well plate with fibronectin. Thereafter, the MSCs subjected to the subculture were peeled using Tryple Express (Thermo, 12604-013), washed once with a custom culture medium, suspended in a custom culture medium in which a cyclic peptide complex or bFGF (R&D Systems, 3718-GMP) was diluted to final concentrations of 10 nmol/L and 1 nmol/L, and seeded on a 12-well plate coated with fibronectin. In this case, conditions in which the cyclic peptide complex and bFGF were not added as a negative control were prepared. After culturing at 37° C. (5% CO2) for 2 nights, the culture medium was replaced by removing the supernatant of the culture medium and adding the same amount of a culture medium prepared to have the same composition as the removed culture medium. After further culturing at 37° C. (5% CO2) for 2 nights, RNA was extracted using an RNeasy Plus Mini Kit (Qiagen, 74136) according to the manufacturer's protocol. […] The expression level of each gene was normalized by setting the expression level of the well to which 1 nmol/L bFGF was added to 1.

[4] abbreviates: 1 nmol/L bFGF versus negative control.

Take “332 (AXVWTFDRHAQEISQALHXVKKK; not fully specified; Description of Artificial Sequence: Cyclic peptide) [compound 332]”: the “Evaluation result of binding affinity to FGFR” value (“Evaluation result … to FGFR” for short) in data set [1] is listed as “A (The binding amount is 0.7 molecules of the cyclic peptide/one molecule of FGFR or more.)”. The “Evaluation result of reductive stability” value in data set [2] is “A (The residual rate of cyclic peptide is 90% or more.)”.
In the same order, the values of “333 (AXVWTFDRHAQEISQALHXVKKK; not fully specified; Description of Artificial Sequence: Cyclic peptide) [compound 333]” are “A (The binding amount is 0.7 molecules of the cyclic peptide/one molecule of FGFR or more.)” and “A (The residual rate of cyclic peptide is 90% or more.)”.
Consider “334 (AXVWTFDRHAQEISQALHXVKKK; Description of Artificial Sequence: Cyclic peptide) [compound 334]”, for which the “Evaluation result … to FGFR” value in data set [1] is “A (The binding amount is 0.7 molecules of the cyclic peptide/one molecule of FGFR or more.)”. The “Evaluation result of reductive stability” value in data set [2] is listed as “A (The residual rate of cyclic peptide is 90% or more.)”.
The corresponding values for “336 (ACVWTFDRHAQEISQALHCVKKK; disulfide 2-19 (inferred)) [compound 336]” are “D (The binding amount is less than 0.1 molecules of the cyclic peptide/one molecule of FGFR.)” and “D (The residual rate of the cyclic peptide is less than 50%)”.
Consider “337 (F[Orn](COCH2)VYTFDAHAHSLDAALN[hCys]IKKK; thioether 2-19) [compound 337]”, for which the “Evaluation result … to FGFR” value in data set [1] is “C (The binding amount is 0.1 molecules of cyclic peptide/one molecule of FGFR or more and less than 0.5 molecules of cyclic peptide/one molecule of FGFR.)”. Further, the “Evaluation result of reductive stability” value in data set [2] was “B (The residual rate of the cyclic peptide is 70% or more and less than 90%)”.
Regarding “338 (FXVYTFDAHAHSLDAALNXIKKK; Description of Artificial Sequence: Cyclic peptide) [compound 338]”, in data set [1], the “Evaluation result … to FGFR” value was “C (The binding amount is 0.1 molecules of cyclic peptide/one molecule of FGFR or more and less than 0.5 molecules of cyclic peptide/one molecule of FGFR.)”. Also, the “Evaluation result of reductive stability” value in data set [2] was “A (The residual rate of cyclic peptide is 90% or more.)”.
“339 (F[Orn](COCH2)VYTFDAHAHS[NMeL]DAALN[hCys]IKKK; thioether 2-19) [compound 339]”: the “Evaluation result … to FGFR” value in data set [1] is “C (The binding amount is 0.1 molecules of cyclic peptide/one molecule of FGFR or more and less than 0.5 molecules of cyclic peptide/one molecule of FGFR.)”. The “Evaluation result of reductive stability” value in data set [2] is “B (The residual rate of the cyclic peptide is 70% or more and less than 90%)”.
Consider “340 (F[Orn](COCH2)VYTFDAHAHS[hLeu]DAALN[hCys]IKKK; thioether 2-19) [compound 340]”, for which the “Evaluation result … to FGFR” value in data set [1] was “B (The binding amount is 0.5 molecules of the cyclic peptide/one molecule of FGFR or more and less than 0.7 molecules of cyclic peptide/one molecule of FGFR.)”. Moreover, the “Evaluation result of reductive stability” value in data set [2] was “B (The residual rate of the cyclic peptide is 70% or more and less than 90%)”.
Turning to “341 ([Orn](COCH2)VYTFDAHAHSLDAALN[hCys]IKKK; thioether 1-18) [compound 341]”, the “Evaluation result … to FGFR” value in data set [1] was “C (The binding amount is 0.1 molecules of cyclic peptide/one molecule of FGFR or more and less than 0.5 molecules of cyclic peptide/one molecule of FGFR.)”. The “Evaluation result of reductive stability” value in data set [2] is “B (The residual rate of the cyclic peptide is 70% or more and less than 90%)”.
For “342 (F[Orn](COCH2)VYTFDAHAHSLDAALN[hCys]KKK; thioether 2-19) [compound 342]”, the “Evaluation result … to FGFR” value in data set [1] is “C (The binding amount is 0.1 molecules of cyclic peptide/one molecule of FGFR or more and less than 0.5 molecules of cyclic peptide/one molecule of FGFR.)”. Moreover, in data set [2], the “Evaluation result of reductive stability” value is “B (The residual rate of the cyclic peptide is 70% or more and less than 90%)”.
For “bFGF: basic fibroblast growth factor (R&D Systems, 3718-GMP), growth factor used as comparison”, in data set [3] (setting [4]), the “expression level of Nanog” value is reported as “did not change substantially” and the “expression level of Oct4” value is “did not change substantially”. In addition, in data set [3] (cyclic peptide complex 10 nmol/L, bFGF 1 nmol/L, normalized to 1 nmol/L bFGF = 1, FIG. 4), the “expression level of Sox2” value is “changed”.
